# In the supplement of paper PMC12042874:
# ± gives the uncertainty stated by the source.
# Test: amyloid nucleation score (Sup35N fusion, yeast selection) (log enrichment); library NNK3; higher = more nucleation; inactive = no reads after selection
# Outline: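 The nucleation score is a DiMSum log enrichment of output over input reads, centred on the mode score of non-aggregating sequences. Sequences under 100 input reads were excluded, and reads came from Illumina sequencing of plasmid inserts. Psi-negative yeast expressing Sup35N fused to peptides of 20 random codons were induced with 100 μM copper sulfate for 24 hours and grown 7 days at 30°C on medium lacking adenine and uracil. Random libraries had three technical output replicates.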
row,Substance,amyloid nucleation score
1,LVLMSEGFM,inactive
2,CYVFIEDLTDGMSCRMLFSH,inactive
3,ADRVSVIYMS,inactive
4,VFYGLYF,inactive
5,KTQDKITGFLTVLWLRKLVP,inactive
6,SSLAGMQEDC,inactive
7,LYNYAVSISTLIH,0.971 ± 0.2
8,TVPVSSCGGLRNEPHDVRFG,inactive
9,FCLFDFGILG,inactive
10,LIYTGSAIIINRIWE,2.17 ± 0.08
11,AMPMATLTVPMWLLILFVTF,inactive
12,IEKASACNG,inactive
13,KVNAFTCTKSFGLCVSESFT,inactive
14,RSLDD,inactive
15,YRYFGTAAMKRICHRNSIVS,inactive
16,LYVDCGLRIWRNMSAIVGCV,inactive
17,VLVICWFRDDGYSVFLCCQT,inactive
18,VLDLCDVY,inactive
19,VLFINACYPLIISYQ,1.97 ± 0.066
20,LMGTQVVFDDTDPYTEKGLL,inactive
21,FVRDRFTIMFEWIAVLRLEL,inactive
22,WGTFIKSFQRLVKMVLLSMP,inactive
23,RGQFYLLVARLNSKM,inactive

row,Substance,amyloid nucleation score
1,FFENWKLGDFAYRRIGTLLK,-0.515 ± 0.66
2,SLTSWGRMMSWVPCSKELRQ,inactive
3,ILNMAVGALWGLMIWSVMLF,inactive
4,LNNRA,inactive
5,GIDDDCARHIYWGRFLIGSC,-0.241 ± 1.1
6,HMMTRAASVSLSVQQ,inactive
7,ESCWHLAEVRVIYGHRSMRP,0.854 ± 0.2
8,KYYWFMF,1.78 ± 0.096
9,CCIIYVVRRGE,1.28 ± 0.096
10,CNQTSM,inactive
11,CNVGPVSLFRFMGPLNYRDE,inactive
12,GFLGCRSETFWRVVVTKRKV,inactive
13,DLTSIVWSRAYVVSY,inactive
14,LFIECIRSGDDGCILWETWH,inactive
15,NATIFFMQ,0.605 ± 0.24
16,SVIIRRGTSQPNRVSWNKVK,inactive
17,FFANKYSLFAVVTMLANFLY,inactive
18,NSGAA,inactive
19,HLSPVNSK,inactive
20,PAGWGWSCCFDFLSSISKIY,inactive
21,LFYAVSFQRYQANVFVVRGD,inactive
22,ALPPSVF,inactive
23,TKAAMPRNNYLFILY,-0.278 ± 0.71

row,Substance,amyloid nucleation score
1,EGYACIVYCLGPINLLMWCT,inactive
2,WLEDTSSTDF,0.348 ± 0.22
3,MLNNNRWVGVFRLCWNVVWS,inactive
4,FFYDLMYLIMV,inactive
5,YYFPWLYAKYSVVIINDMEP,2.64 ± 0.05
6,YSDIVFILDLGYCAF,1.3 ± 0.091
7,IPALIVISQYRGANRFDCAF,inactive
8,SFWCRVSHLSRDTFMDVRFM,inactive
9,NSGIFFLVMTSKLNAVLCLA,inactive
10,NFSIYYLDLISR,1.95 ± 0.098
11,YFILIYWSQCSMWYYVFKYG,inactive
12,WANNSCAIRGNNSPMGGSVA,inactive
13,QRELSNMVVISLVQAMLWFR,inactive
14,RHAPNVLKYLAHFNDYRQWH,inactive
15,LTQLTIIKTGLTCLMA,inactive
16,IAGFRNGSPANNAVGKPG,inactive
17,RSNVVAQMYQKMLLSRYCTI,0.354 ± 0.27
18,DLCGNPVPVQSSGLGYDGLV,inactive
19,RPFNRTYHILLYQMHYVRST,inactive
20,WSTMMNNWCLLWGCKLKPKL,inactive
21,MSNRVMLKNYSLELEEIGRK,inactive
22,FFLPSG,inactive
23,RFCRSSWMYPVEGQVGHIRE,inactive

row,Substance,amyloid nucleation score
1,KLSCMSTIVCRYTFLQAKQT,inactive
2,NKWLDRNKG,inactive
3,MGTRFVLGPVQNLCDIGSAW,inactive
4,VRLNALIHDIVMMVWGTMHG,inactive
5,RIVGRLVSRALWWV,inactive
6,NFRVLVVNVKTFLMVVKVMF,inactive
7,NVPGLSCNTSARLWRSSRLS,inactive
8,DVFRVMDNLLFWKGTLALIQ,inactive
9,PFHGSLDWSTTESAMT,inactive
10,YYMRDCSYIHEFGTGVASDR,inactive
11,SLFFN,inactive
12,CFSLGVCGQAKVNVWNNIYV,2.71 ± 0.054
13,KVGFHHDTVLAGSNQRVLFF,-0.354 ± 0.88
14,MWFAKAGTCNGSWLDMLSGW,inactive
15,IPFLDKGYGR,inactive
16,EFTNMYLPNSQQEVRFLQGL,inactive
17,NNSSLRTEVLCFDGISQFGG,inactive
18,SPMRLLGSSFGQ,inactive
19,IFCAPRAEVSGSYYRGNVSV,inactive
20,RMRDRSGMGRTFHHGTQTTV,inactive
21,YIASNAWETWRRDRSYRKRL,inactive
22,SVKRDFFSLFRFVSNAVSED,inactive
23,SSHIRWHGN,inactive

row,Substance,amyloid nucleation score
1,CMVNFS,inactive
2,SLIDHYLSDLSKKS,inactive
3,RWRFRRWVS,inactive
4,PYFQFGSSCE,inactive
5,RWSLYLGRSRMKLRATVHSF,inactive
6,AYVLARFLEDFFMILLWDRW,inactive
7,TDILLYMIFVLHVVSNGVLG,inactive
8,SNNLEGVLSVCDFVF,inactive
9,SSGNFA,inactive
10,STLGRKVRFTVVLITIGVLT,inactive
11,AKPIRSSGMFVCTAVYEYVF,inactive
12,YNFECLIFWSVKYLVCQHIT,inactive
13,YNRADSIRFQ,inactive
14,ASCQSSIVFRTGSSLATLCD,inactive
15,SVIVTYVWVTAVVQGEYSTK,-0.095 ± 0.55
16,TISIVTWDIVRSKCMRRKVL,inactive
17,VIGGVEREQQDRLKL,inactive
18,KYCGLSRPIAFSPVVKKHLM,inactive
19,RRSTYLIVFVG,inactive
20,NWGLIMVSVEEDTDLGGSGM,-0.114 ± 0.88
21,HISCMCLIYIV,2.24 ± 0.088
22,AYRSKLKLCSYWIMGCVHPL,inactive
23,KKMLLWHI,inactive

row,Substance,amyloid nucleation score
1,TASWVLFVAVVCICLTLFSY,0.85 ± 0.3
2,RGIPDLVIY,inactive
3,MLLCMILPK,2.26 ± 0.078
4,QFSVCCCRHLPLYMTKAVIA,inactive
5,SLVIAIHRAFLFMAGRSRVG,inactive
6,ALMRYVFPKWRDCAAMWDSL,inactive
7,TRFLFCFNWIWGEPVACEYE,2.39 ± 0.07
8,DSRFEWLLTLYYRFYLHNGR,inactive
9,SGFVRWRSISFLPNHERLST,inactive
10,VYFRVFCFVSLCGVY,-0.548 ± 0.9
11,CCLEILGTLFN,inactive
12,RNYNYFINCVHWLYLVSWGL,0.605 ± 0.45
13,LKHCQMGVVTSSYLMWLVGT,inactive
14,PSCSRSVTMWKSRNLFIQLA,inactive
15,MERVRGRRMGVIVAFDVDGW,1.11 ± 0.19
16,DSSLKMGCKGWNVYVGATLV,0.866 ± 0.16
17,CRYSLWSFSQMGEWMPRCER,inactive
18,ASIGIRFVDCLYSVLRRWMF,inactive
19,YGLSGDKFRWM,inactive
20,QLHNYARMKAQLLAVQV,inactive
21,RTSVDQLEMKMRFSMSFGWL,0.449 ± 0.64
22,EDLVISNIFGWFGCLGLVYT,inactive
23,VFNFFYAEMGLMIKFWIDNL,1.08 ± 0.081

row,Substance,amyloid nucleation score
1,FDVVVIYATGVCFLATYYQG,inactive
2,PRNRSVGKMLTRINNSFSRA,inactive
3,MCEGLEFLNTK,inactive
4,QERTKSFWPLLLALALPSDQ,inactive
5,IFNLMFYFVVRNE,3.01 ± 0.071
6,MRLVACA,inactive
7,EKKCIQRRFFYSVFNLMLSF,-0.714 ± 1
8,EVSHSVEQYFSFMCHHTWAP,inactive
9,CRHTLSRHDVTRCNSEVSSL,inactive
10,YNPIGFRRLFTPTCLFITKL,inactive
11,RFQFIEFSSTVSSGGWTFFI,-0.165 ± 0.39
12,DDCIKPYSLIYTQRHTPRDI,inactive
13,STASILFIGVKYVM,0.889 ± 0.32
14,HRAPMSHPVCLMIKWLLWVL,inactive
15,RSHGVLNLILCSPFLSDTGQ,2.78 ± 0.074
16,CNVIE,inactive
17,SNAMMGSRRIGLMGYAVRVL,inactive
18,VHIYSCYTRALDGNGAHSNN,inactive
19,RFTYGDRCMKMRMPNFETAH,inactive
20,KLFISPLEMLISRISWTILH,0.152 ± 0.77
21,FLRLHLFHSWTISLSSYRSV,inactive
